Source: the MegaScale stability set (Tsuboyama et al. 2023)

B1: r16_88_TrROS_Hall (parent)
chain: EVIELKIKFKTPEQREKLKEIAKKLNAEVVEEKDGEVIIRFKTPEQAERALKEAEKLGAEVEL

Variants of: B1
Assay: folding stability dG (cDNA display proteolysis); higher = more stable
Conditions: PBS, room temperature

Variant | folding stability dG [kcal/mol]
EVIELKIKFKTPEQREKLKEIAKKLNNEVVEEKDGEVIIRFKTPEQAERALKEAEKLGAEVEL | 3.76
EVIELKIKFKTPEQREKLKEIAKKLNHEVVEEKDGEVIIRFKTPEQAERALKEAEKLGAEVEL | 4.04
EVIELKIKFKTPEQREKLKEIAKKLNAEVVERKDGEVIIRFKTPEQAERALKEAEKLGAEVEL | 4.3
EVIELKIKFKTPEQREKLKCIAKKLNAEVVEEKDGEVIIRFKTPEQAERALKEAEKLGAEVEL | 4.51
EVIELKIKFKTPEQREKLKKIAKKLNAEVVEEKDGEVIIRFKTPEQAERALKEAEKLGAEVEL | 4.39
EVIELKIKFKTPEQREKLKDIAKKLNAEVVEEKDGEVIIRFKTPEQAERALKEAEKLGAEVEL | 4.26
EVIELKIKFKTPEQREKLKEIAKKLNAEVVEEKDGNVIIRFKTPEQAERALKEAEKLGAEVEL | 4.24
EVIELKIKFKTPEQREKLKEIAKKLNAEVVEEKDGDVIIRFKTPEQAERALKEAEKLGAEVEL | 4.49
EVIELKIKFKTPEQREKLKEIAKKLNAEVVEEKDGIVIIRFKTPEQAERALKEAEKLGAEVEL | 4.32
EVIELKIKFKTPEQREKLKEIAKKLNAEVVEEKDGEVIIRFKTPEQAERMLKEAEKLGAEVEL | 4.3
EVIELKIKFKTPEQREKLKEIAKKLNAEVVEEKDGEVNIRFKTPEQAERALKEAEKLGAEVEL | 4.24
EVIELKIKFKTPEQREKEKEIAKKLNAEVVEEKDGEVIIRFKTPEQAERALKEAEKLGAEVEL | 1.57
EVIELKIKFKTPEQREKLKEIAKKLNAEVVEEKDGEVIIRFKQPEQAERALKEAEKLGAEVEL | 4.3
EVIELKIKFKTPEQREKLKEIAKKLNAEVVEEKDGEVIIRFKWPEQAERALKEAEKLGAEVEL | 4.29
EVIELKIKFKTPEQREKLKEIAKKLNAEVVEEKDGEVIIRFKTPEQAERALKEAEKLGHEVEL | 4.43
EVIELKIKFKTPEQREKLKEIAKKLNAEVVEEKDGEVIIRFKTPEQAERALKEAEKLGGEVEL | 4.18
EVIELKIKFKTPEQREKLMEIAKKLNAEVVEEKDGEVIIRFKTPEQAERALKEAEKLGAEVEL | 4.42
EVIELKIKLKTPEQREKLKEIAKKLNAEVVEEKDGEVIIRFKTPEQAERALKEAEKLGAEVEL | 4
EVIELKIKEKTPEQREKLKEIAKKLNAEVVEEKDGEVIIRFKTPEQAERALKEAEKLGAEVEL | 2.48
EVIELKIKFKTPNQREKLKEIAKKLNAEVVEEKDGEVIIRFKTPEQAERALKEAEKLGAEVEL | 4.57
EVIELKIKFKTPEQREKLKEIAKKLNAEVVEEKDGEVIIRFKTPEQAERALKEAEKLIAEVEL | 4.22
EVIELKIKFKTPEQREKLKEIAKKLNAEVVEEKDGEVIIRFKTPEQAERALKEAEKLPAEVEL | 3.83

Variant | folding stability dG [kcal/mol]
EVIELKIKFKTPEQREKLKEIAKKLNAEVVEEKDGEVIIRFHTPEQAERALKEAEKLGAEVEL | 4.1
EVIELKIKFKTPEQREKLKEIAKKLNAEVVEEKDGEVIIRFKTPMQAERALKEAEKLGAEVEL | 4.46
EVIELKIKFKTPEQREKLKEIAKKLNAEVVEEKDGEVIIRFKTPEQAERALAEAEKLGAEVEL | 4.52
EVIELKIKFKTPEQREKLKEIAKKLNAEVVEEKDGEVIIRFKTPEQAERALWEAEKLGAEVEL | 4.43
EVIELKIKFKTPEQREKLKEIAKKLNAEVVEEKDGEVIIRFKTPEQAERALLEAEKLGAEVEL | 4.44
EVIELKKKFKTPEQREKLKEIAKKLNAEVVEEKDGEVIIRFKTPEQAERALKEAEKLGAEVEL | 2.77
EVIETKIKFKTPEQREKLKEIAKKLNAEVVEEKDGEVIIRFKTPEQAERALKEAEKLGAEVEL | 4.04
EVIELKIKFKTPEQREKLKEIAKKLNAEVVEEKDGEVIIRFKTPEQAERALKEAHKLGAEVEL | 4.21
EVIELKIKFKTPEQREKLKEIAKKLNAEVVEEKDGEVIIRFKTPEQAERALKEATKLGAEVEL | 4.31
EVIELKIKFKTPEQREKLKEIAKKLNAEVVEEKDGEVIIRFKTPEQAERALKEAYKLGAEVEL | 4.66
EVIELKIKFKTPEQREKLKEIAKKLNAEVVEEKDGEVIIRFKTPEQAERALKEAGKLGAEVEL | 4.22
EVIELKIKFKTPEQREKLKEIAKKLNAEVVEEKDGEVIIRFKTPEQAERALKEAIKLGAEVEL | 4.46
EVIELKIKFKTPEQREKLKEIAKKLNAEVVEEKDGEVIIRFKTLEQAERALKEAEKLGAEVEL | 4.65
EVIELKIKFKTPEQREKLKEIAKKLNAEVVEEKDGEVIIRFKTWEQAERALKEAEKLGAEVEL | 4.58
EVIELKIKFKTPEQREKLKEIAKKLNAEVVEEKDGEVIIRFKTTEQAERALKEAEKLGAEVEL | 4.46
EVIELKIKFKTPEQREKLKEIAIKLNAEVVEEKDGEVIIRFKTPEQAERALKEAEKLGAEVEL | 4.56
EVIELKIKFKTPEQREKLKEIAEKLNAEVVEEKDGEVIIRFKTPEQAERALKEAEKLGAEVEL | 4.36
EVIELKIKFKTPEQREKLKEIAWKLNAEVVEEKDGEVIIRFKTPEQAERALKEAEKLGAEVEL | 4.8
EVIELKIKFKTPEQREKLKEIAKKGNAEVVEEKDGEVIIRFKTPEQAERALKEAEKLGAEVEL | 4.23
EVIELKIKFKTPEQREKLKEIMKKLNAEVVEEKDGEVIIRFKTPEQAERALKEAEKLGAEVEL | 4.35
EVIELKIKFKTPEQREKLKEIAKKLNAEVVEEKDGEVIIRFKTPEQAERALKEAEKQGAEVEL | 4.25
EVIELKIKFKTPEQRPKLKEIAKKLNAEVVEEKDGEVIIRFKTPEQAERALKEAEKLGAEVEL | 4.03

Variant | folding stability dG [kcal/mol]
EVIELKIKFKTPEQREKLKEIAKKLNAEVVTEKDGEVIIRFKTPEQAERALKEAEKLGAEVEL | 4.35
EVIELKIKFKTPEQKEKLKEIAKKLNAEVVEEKDGEVIIRFKTPEQAERALKEAEKLGAEVEL | 4.13
EVIELKIKFKTPEQQEKLKEIAKKLNAEVVEEKDGEVIIRFKTPEQAERALKEAEKLGAEVEL | 4.22
EVIELKIKFKTPEQREKLKEIAKKLNAEVVEEKDGEVIIRFKTPEQAERALKGAEKLGAEVEL | 4.07
EVIELKIKFKTPEQREKLKEIAKKLNAEVVEEKDGEVIIRFKTPEQAERALKAAEKLGAEVEL | 4.13
EWIELKIKFKTPEQREKLKEIAKKLNAEVVEEKDGEVIIRFKTPEQAERALKEAEKLGAEVEL | 4.56
ENIELKIKFKTPEQREKLKEIAKKLNAEVVEEKDGEVIIRFKTPEQAERALKEAEKLGAEVEL | 4.22
EVIELKIKFKTPEQREKLKEIAKKLNAELVEEKDGEVIIRFKTPEQAERALKEAEKLGAEVEL | 4.2
EVIELKIKFKTPEQREKLKEIAKKLNAEVVEEKDGEVIIRFKTPEQAMRALKEAEKLGAEVEL | 4.46
EVIELKIKFKTPEQREKLKEIAKKLNAEVVEEKDGEVIIRFKTPEQPERALKEAEKLGAEVEL | 3.25
EVIELKIKFKTPEQREKLKEIAKKLNAEVVEEKDGEVIIRFKTPEQCERALKEAEKLGAEVEL | 4.46
EVIELKIKFKTPEQREKLKEIAKKLNAAVVEEKDGEVIIRFKTPEQAERALKEAEKLGAEVEL | 4.29
YVIELKIKFKTPEQREKLKEIAKKLNAEVVEEKDGEVIIRFKTPEQAERALKEAEKLGAEVEL | 4.34
KVIELKIKFKTPEQREKLKEIAKKLNAEVVEEKDGEVIIRFKTPEQAERALKEAEKLGAEVEL | 4
EVIELKIKFKTPEQREKLKEIAKKLNAEVVEEKDGEVIIRFKTPEQAERALKEAEDLGAEVEL | 4.21
EVIELKIKFKTPEQREKLKEIAKKLNAEVVEEKDGEVIIRFKTPEQAERALKEAECLGAEVEL | 4.41
EVIELKIKFKTPEQREKLKEIAKKLNAEVVEEKDGELIIRFKTPEQAERALKEAEKLGAEVEL | 4.39
EVIELKIKFKTPEQREKLKEIAKKLNAEVVEEKDGEQIIRFKTPEQAERALKEAEKLGAEVEL | 4.07
EVIELKIKFKTPEQREKLKEIAKKLNAEVVEEKDGEVIIRFKTPEQAERAFKEAEKLGAEVEL | 4.4
EVIELKIKFKTPEQREKLKEIAKKLNAEVVEEKDGEVIIRFKTPEQAERAKKEAEKLGAEVEL | 4.61
EVIELKIKFKTPEQREKLKEIAKKLNAEVVEEKDGEVIIRFKTPEQAERAMKEAEKLGAEVEL | 4.4
EVIELKIKFKTPEQREKLKEIAKKLNAEVVEEKDGEVIIRFKTPEQAESALKEAEKLGAEVEL | 4.48

Variant | folding stability dG [kcal/mol]
EVIELKIKFKFPEQREKLKEIAKKLNAEVVEEKDGEVIIRFKTPEQAERALKEAEKLGAEVEL | 4.54
EVIELKIKFKTPEQREKLKEIAKKLNAEVVEEKDGEVIIRQKTPEQAERALKEAEKLGAEVEL | 2.23
EVIELKIKFKTPEQREKLKEIAKKLNAEVVEEKDGEVIIRNKTPEQAERALKEAEKLGAEVEL | 3.33
EVIELKIKFKTPEQREKLKEIAKKLNAEVVEEKDGEVIIRIKTPEQAERALKEAEKLGAEVEL | 4.16
EVIELKIKFKTPEQREKLKEIAKKLNAEVDEEKDGEVIIRFKTPEQAERALKEAEKLGAEVEL | 4.27
EVIELKIKFKTPEQREGLKEIAKKLNAEVVEEKDGEVIIRFKTPEQAERALKEAEKLGAEVEL | 4.38
EVIELKIKFKTPEQRENLKEIAKKLNAEVVEEKDGEVIIRFKTPEQAERALKEAEKLGAEVEL | 4.42
EVIELKIKFKTPEQRESLKEIAKKLNAEVVEEKDGEVIIRFKTPEQAERALKEAEKLGAEVEL | 4.45
EVIELKIKFKTPEQRERLKEIAKKLNAEVVEEKDGEVIIRFKTPEQAERALKEAEKLGAEVEL | 4.51
EVIELKIKFKTPEQREELKEIAKKLNAEVVEEKDGEVIIRFKTPEQAERALKEAEKLGAEVEL | 4.3
EVIELKIKFKTPEQREHLKEIAKKLNAEVVEEKDGEVIIRFKTPEQAERALKEAEKLGAEVEL | 4.4
EVIELKIKFKTPEQREKLKEIAKKLNAEVVEEKDGEVIIRFKTPEQAERALKEAEKLGAECEL | 4.16
EVIELKIKFKTPEQREKLKEIAKKLNAEVVEEFDGEVIIRFKTPEQAERALKEAEKLGAEVEL | 4.42
EVIELKIKFKTPEQREKLKEIAKKLNAEVVEEGDGEVIIRFKTPEQAERALKEAEKLGAEVEL | 4.36
EVIELKIKFKTPEQREKLKEIAKKLNAEVVEEKDQEVIIRFKTPEQAERALKEAEKLGAEVEL | 4.25
EVIELKIKFKTPEQREKLKEIAKKLNAEVVEEKDAEVIIRFKTPEQAERALKEAEKLGAEVEL | 4.5
EVIELKIKFKTPEQREKLKEIAKKLNAEVVEEKDGEVIIRFKTPEQAERALKEAEKLGAEVKL | 4.17
EVIELKIKFKTPEQREKLKEIAKKLNAEVVEEKDGEVIIRFKTPEQAERALKEAEKLGAEVNL | 4.53
EVIELKIKFKTPEQREKLKEIAKKLNAEVVEEKDGEVIIRFKTPEQAERALKEAEKLGAEVCL | 4.59
